Results published in patent publication US20200291391A1, “CROSS-LINKED EPITOPES AND METHODS OF USE THEREOF” (Indi Molecular, Inc., priority 2019, published 2020).

Experiments:
[1] = molecular target: immobilized recombinant CD8 protein (UniProt P01732); assay: solid-phase ELISA on immobilized recombinant CD8 protein
[2] = molecular target: CD8 on CD8+ SupT1 cells (human) (UniProt P01732); assay: flow cytometry on CD8+ SupT1 cells
[3] = molecular target: CD8 on CD8+ SupT1 cells (human) (UniProt P01732); assay: flow cytometry on CD8+ SupT1 cells; remark: listed apart in the source
[4] = molecular target: CD8 on CD8+ SupT1 cells (human) (UniProt P01732); assay: flow cytometry on CD8+ SupT1 cells; ligand at 4 µM
[5] = molecular target: CD8 on CD8+ SupT1 cells (human) (UniProt P01732); assay: flow cytometry on CD8+ SupT1 cells; ligand at 0.05 µM
[6] = molecular target: CD8 on CD8+ SupT1 cells (human) (UniProt P01732); assay: flow cytometry on CD8+ SupT1 cells; ligand at 4 µM, room temperature
[7] = molecular target: CD8 on CD8+ SupT1 cells (human) (UniProt P01732); assay: flow cytometry on CD8+ SupT1 cells; ligand at 0.15 µM
[8] = molecular target: CD8 on CD8+ SupT1 cells (human) (UniProt P01732); assay: flow cytometry on CD8+ SupT1 cells; ligand at 0.4 µM
[9] = molecular target: CD8 on CD8+ SupT1 cells (human) (UniProt P01732); assay: flow cytometry on CD8+ SupT1 cells; ligand at 1.3 µM
[10] = molecular target: CD8 on CD8+ SupT1 cells (human) (UniProt P01732); assay: flow cytometry on CD8+ SupT1 cells; ligand at 4 µM, 4° C.

Sequence of CD8 on CD8+ SupT1 cells (human) (P01732 22-235): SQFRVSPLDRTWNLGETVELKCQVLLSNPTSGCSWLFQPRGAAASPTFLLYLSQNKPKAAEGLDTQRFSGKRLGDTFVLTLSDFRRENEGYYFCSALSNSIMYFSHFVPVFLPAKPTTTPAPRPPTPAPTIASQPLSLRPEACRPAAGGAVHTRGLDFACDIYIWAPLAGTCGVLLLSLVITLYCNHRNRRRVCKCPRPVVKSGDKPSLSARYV

Row | Substance | MFIR (Mean Fluorescence Intensity Ratio) (ratio relative to Biotin1k-PEG) [2] | MFIR (Mean Fluorescence Intensity Ratio) (ratio relative to unstained) [2] | further results
1 | Biotin-1kPEG-vlyrr (SEQ ID NO: 30) (peptide) | 2 | – | EC50 [1]: 77 nM
2 | Biotin-1kPEG-cy(snprk) (SEQ ID NO: 28) (peptide) | – | 1.1 | –
3 | Biotin anti-CD8a Ab (Clone RPA-T8) (antibody) | – | 73.9 | MFIR (Mean Fluorescence Intensity Ratio) (ratio relative to unstained) [3]: 86.6
4 | Biotin-1kPEG-yrsny (SEQ ID NO: 34) (peptide) | 1 | – | –
5 | Biotin-1kPEG-rpyay (SEQ ID NO: 35) (peptide) | 1 | – | –
6 | Biotin-1kPEG-nfyrr (SEQ ID NO: 32) (peptide) | 1.2 | – | EC50 [1]: 47 nM
7 | Biotin-1kPEG-cy(krsah) (SEQ ID NO: 27) (peptide) | – | 1.6 | –
8 | Biotin-1kPEG-rftaf (SEQ ID NO: 37) (peptide) | 1.1 | – | –
9 | Biotin-1kPEG-cy(tfpkk) (SEQ ID NO: 21) (peptide) | – | 1.8 | MFIR (Mean Fluorescence Intensity Ratio) (ratio relative to unstained) [4]: 1.5; MFIR (Mean Fluorescence Intensity Ratio) (ratio relative to unstained) [5]: 1; MFIR (Mean Fluorescence Intensity Ratio) (ratio relative to unstained) [6]: 1.5; MFIR (Mean Fluorescence Intensity Ratio) (ratio relative to unstained) [7]: 1; MFIR (Mean Fluorescence Intensity Ratio) (ratio relative to unstained) [8]: 1.1; MFIR (Mean Fluorescence Intensity Ratio) (ratio relative to unstained) [9]: 1.1; MFIR (Mean Fluorescence Intensity Ratio) (ratio relative to unstained) [10]: 1.5
10 | Biotin-1kPEG-aykfn (SEQ ID NO: 36) (peptide) | 1.1 | – | –
11 | Biotin-1kPEG-yfrsr (SEQ ID NO: 33) (peptide) | 1.1 | – | –
12 | Biotin-1kPEG-yrpfy (SEQ ID NO: 31) (peptide) | 1.1 | – | –
